Measurements as given in article PMC10154249, “Unique progerin C-terminal peptide ameliorates Hutchinson–Gilford progeria syndrome phenotype by rescuing BUBR1” (Nature Aging, 2023).

B1: progerin (protein)
chain: METPSQRRATRSGAQASSTPLSPTRITRLQEKEDLQELNDRLAVYIDRVRSLETENAGLRLRITESEEVVSREVSGIKAAYEAELGDARKTLDSVAKERARLQLELSKVREEFKELKARNTKKEGDLIAAQARLKDLEALLNSKEAALSTALSEKRTLEGELHDLRGQVAKLEAALGEAKKQLQDEMLRRVDAENRLQTMKEELDFQKNIYSEELRETKRRHETRLVEIDNGKQREFESRLADALQELRAQHEDQVEQYKKELEKTYSAKLDNARQSAERNSNLVGAAHEELQQSRIRIDSLSAQLSQLQKQLAAKEAKLRDLEDSLARERDTSRRLLAEKEREMAEMRARMQQQLDEYQELLDIKLALDMEIHAYRKLLEGEEERLRLSPSPTSQRSRGRASSHSSQTQGGGSVTKKRKLESTESRSSFSQHARTSGRVAVEEVDEEGKFVRLRNKSNEDQSMGNWQIKRQNGDDPLLTYRFPPKFTLKAGQVVTIWAAGAGATHSPPTDLVWKAQNTWGCGNSLRTALINSTGEEVAMRKLVRSVTVVEDDEDEDGDDLLHHHHGSHCSSSGDPAEYNLRSRTVLCGTCGQPADKASASGSGAQSPQNCSIM
modifications: left off: GST, end not stated, kept
B2: mVenus-progerin (protein)
chain: B1 chain
modifications: left off: mVenus, end not stated, kept

Experiments:
PTBP1–BUBR1 mRNA 3′-UTR = assay: RIP assay of PTBP1 and BUBR1 mRNA 3′-UTR in HEK-293T cells; format: cell-based; settings: Fig. 4n, PTBP1+progerin, P=0.0002 vs PTBP1
Method: RIP and RNA pulldown assays were performed as previously described. The RIP experiment was carried out using the EZ-Magna RIP Kit (Millipore, catalog no. 17-701). The coprecipitated RNAs were extracted through Trizol reagent and detected by RT-PCR. The primer sequences for PCR, synthesized by Comate Bioscience, were as follows:
BUBR1-3′UTR_fwd (5′-[…]-3′) and BUBR1-3′UTR_rev (5′- […]-3′).

IMR90 cells [1] = assay: Ki67 immunofluorescence of IMR90 cells; format: cell-based, human; settings: Fig.1k, IMR90, Vector 67, 75, 60, P vs Vector: BUBR1 0.803, progerin 0.0018
Method: (§1) Immunofluorescence was performed as described previously. Cells were plated on cover slips in 12-well plates, left overnight before the treatment. Cells were fixed in 1% formaldehyde in culture medium for 10 min at 37 °C and permeabilized with 0.2% Triton X-100 in PBS for 10 min at room temperature. Cells were washed twice in PBS and blocked for 1 h with 5% BSA in PBS and then incubated with primary antibodies at 4 °C overnight, washed three times in PBS and incubated with secondary antibodies for 1 h at room temperature. Cell nuclei were counterstained with a 500 nM concentration of 4,6-diamidino-2-phenylindole (DAPI) (Sigma). Images were acquired by a fluorescence microscope (OLYMPUS FV-1000, Carl Zeiss LSM880 or Leica DMi8) and analyzed with software NIS-Elements AR v.5.0.1 (Nikon), FLUOVIEW v.4.2b (OLYMPUS), ZEN v.2.3 SP1 (Carl Zeiss) and Leica Application Suite X v.3.6.0.24 (Leica). Cells were quantified by investigators who were blinded to the identity of the analyzed cell.

[2] = tested on: IMR90 and HGADFN003 cells; assay: Metaphase chromosome spread assay, aneuploid cells; format: cell-based, human; settings: Fig.1p, IMR90, Vector 6, 5, 8
Method: For the metaphase chromosome spread assay, 1.5 × 10^6 cells were seeded in a 6 cm dish and incubated for 24 h with fresh medium. Then, colchicine was added to a final concentration of 0.2 μg ml^–1 and the cells were incubated at 37 °C for 2 h. After digestion, we collected and rinsed the cells with PBS. The cells were centrifuged at 160g for 10 min. Then, 1 M KCl was added to a final concentration of 0.075 mol l^–1 and the samples were incubated at 37 °C for 20 min. The cells were centrifuged, and the supernatant aspirated. The pellet was resuspended, and 1 ml methanol:glacial acetic acid (3:1) solution was added. The sample was rested at room temperature for 10 min. Then, the cells were centrifuged at 160g for 10 min. The supernatant was aspirated, and the pellet resuspended in 1 ml fixative for 30 min. The cells were centrifuged and the pellet was suspended in 1 ml fixative again for 30 min. The cells were centrifuged at 160g for 10 min and the supernatant aspirated. The pellet was then resuspended in a small volume of fixative (typically less than 500 μl) until the cell suspension appeared lightly milky. A small quantity of the cell suspension was held vertically in a pipette with the end about 10 cm above the slide. A single drop was released from this height onto the slide and allowed to air dry. The cells were then incubated with 500 nM of DAPI (Invitrogen) for 10 min. Slides were examined with an Olympus BX53 fluorescence microscope and the images were captured by using the Olympus IPP v.7.0 software. Aneuploid cells were quantified by investigators who were blinded to the identity of the analyzed cell.

[3] = tested on: BUBR1 kinetochore localization in H1299 cells; assay: Immunofluorescence, abnormal localization of BUBR1 in H1299 cells; format: cell-based; settings: Fig. 3h, H1299, Vector 7, 11, 14, P=0.0008 vs Vector
Method: as §1

IMR90 cells [4] = assay: SA-β-gal staining of IMR90 cells (progerin, BUBR1, shBUBR1); format: cell-based, human; settings: Fig.1i
Method: SA-β-gal staining was performed as previously described. Cells were fixed in 0.5% glutaraldehyde for 15 min at room temperature, washed three times with PBS (pH 6.0) containing 1 mM MgCl2 and exposed overnight 37 °C to containing 1 mg ml^–1 5-bromo-4-chloro-3-indolyl-β-D-galactopyranoside (MCE, catalog no. HY-15934), 0.12 mM potassium ferrocyanide (Sigma, catalog no. P3289), 0.12 mM potassium ferricyanide (Sigma, catalog no. P8131) and 1 mM MgCl2 PBS buffer (pH 6.0). Cells were washed three times with H2O and observed under a microscope (OLYMPUS CKX53). SA-β-gal positive cells were quantified by investigators who were blinded to the identity of the analyzed cell.

BUBR1 = BUBR1 nuclear membrane localization in IMR90, HGADFN003 or H1299 cells; format: cell-based, human; settings: Fig. 2c
Method: as §1

Row | Molecule | PTBP1 enrichment on BUBR1-3'UTR (2-ΔΔCt) (PTBP1–BUBR1 mRNA 3′-UTR; replicate 1) | PTBP1 enrichment on BUBR1-3'UTR (2-ΔΔCt) (PTBP1–BUBR1 mRNA 3′-UTR; replicate 2) | PTBP1 enrichment on BUBR1-3'UTR (2-ΔΔCt) (PTBP1–BUBR1 mRNA 3′-UTR; replicate 3) | Relative percentage of Ki67 positive cells (IMR90 cells [1]; replicate 1) | Relative percentage of Ki67 positive cells (IMR90 cells [1]; replicate 2) | Relative percentage of Ki67 positive cells (IMR90 cells [1]; replicate 3) | Relative percentage of aneuploid cells ([2]; replicate 1) | Relative percentage of aneuploid cells ([2]; replicate 2) | Relative percentage of aneuploid cells ([2]; replicate 3) | Relative percentage of the number of abnormal localization cells of BUBR1 ([3]; replicate 1) | Relative percentage of the number of abnormal localization cells of BUBR1 ([3]; replicate 2) | Relative percentage of the number of abnormal localization cells of BUBR1 ([3]; replicate 3) | Relative percentage of SA-β-gal positive cells (IMR90 cells [4]; Vector 2, 1, 2, P vs Vector: BUBR1 0.2302, progerin 0.0003, replicate 1) | Relative percentage of SA-β-gal positive cells (IMR90 cells [4]; Vector 2, 1, 2, P vs Vector: BUBR1 0.2302, progerin 0.0003, replicate 2) | Relative percentage of SA-β-gal positive cells (IMR90 cells [4]; Vector 2, 1, 2, P vs Vector: BUBR1 0.2302, progerin 0.0003, replicate 3) | BUBR1 nuclear membrane localization of injected cells (BUBR1; mVenus 1, 2, 2, P<0.0001, replicate 1) | BUBR1 nuclear membrane localization of injected cells (BUBR1; mVenus 1, 2, 2, P<0.0001, replicate 2) | BUBR1 nuclear membrane localization of injected cells (BUBR1; mVenus 1, 2, 2, P<0.0001, replicate 3)
1 | B1 | 8.488 | 7.488 | 7.699 | 27% | 31% | 35% | 42% | 38% | 46% | 38% | 37% | 32% | 40% | 50% | 39% |  |  | 
2 | B2 |  |  |  |  |  |  |  |  |  |  |  |  |  |  |  | 97% | 95% | 94%
